For five molecules, receptor occupancy and Kd results are on record in US20240052038A1 (IMMUNOBRAIN CHECKPOINT, published 2024).

As usually defined, the Kd is the equilibrium constant for the complex coming apart.

For assay [1], the target named is T1, cynomolgus monkey PD-L1 on blood T lymphocytes (cynomolgus monkey, UniProt G7PSE7 19-290).
T1 construct: also called PD-L1 receptor (cynomolgus T cells)
Nature of the assay: receptor occupancy on blood T lymphocytes by flow cytometry, cynomolgus monkeys, up to day 12 after 13 mg/kg IV.
Description: (§1) Blood (8 mL) for PBMC isolation was collected at least one day prior to dose and 5, 14, 21 and 30-days post-injection. […] All collected blood and serum samples were frozen for subsequent analysis. […] These antibodies came from a different expression system using transfected HEK cells. Blood (8 mL) for PBMC isolation was collected at least one day prior to dose and 5, 14, 21, 30 and 45-days post-injection. […] All collected blood and serum samples were frozen for subsequent analysis.
(§2) One day prior to dosing (baseline), and on 5, 14, 21, and 30-days post treatment, 8 mL of whole blood was collected for Peripheral Blood Mononuclear Cell (PBMC) isolation and cryopreservation. In the second study, whole blood was also collected also at 45-days post treatment. Samples were analyzed for PD-L1 receptor occupancy on blood T lymphocytes and for Immunophenotype of different immune cell subpopulations. The percentage of PD-L1 receptor occupancy on blood T-lymphocytes by the antibody was assessed using the same method as described above for receptor occupancy in mice.

In assay [2] the target is T1, cynomolgus monkey PD-L1 on blood T …. In words: receptor occupancy on blood T lymphocytes by flow cytometry, cynomolgus monkeys, day 20 after 13 mg/kg IV (antibody cleared). In general terms: In flow cytometry, cells or beads pass a laser one at a time.
Description: as §1, §2
Assay [3] has as its target T2, human PD-L1 (human, UniProt Q9NZQ7 19-238, limits assumed).
T2 construct: also called hPD-L1; Programmed Death-Ligand 1
Nature of the assay: SPR, kinetics. For orientation: In SPR one partner is held on a chip, and binding of the other changes the refractive index at the surface.

Assay [4] addresses T2, human PD-L1. In words: SPR.
The next assay has as its target cynomolgus monkey PD-L1 (cynomolgus monkey, UniProt G7PSE7 19-238). In words: SPR.

Where a chain is given by its changes, count along the chain named. Names may count otherwise.

T1 sequence (G7PSE7 entry or part of it limits assumed): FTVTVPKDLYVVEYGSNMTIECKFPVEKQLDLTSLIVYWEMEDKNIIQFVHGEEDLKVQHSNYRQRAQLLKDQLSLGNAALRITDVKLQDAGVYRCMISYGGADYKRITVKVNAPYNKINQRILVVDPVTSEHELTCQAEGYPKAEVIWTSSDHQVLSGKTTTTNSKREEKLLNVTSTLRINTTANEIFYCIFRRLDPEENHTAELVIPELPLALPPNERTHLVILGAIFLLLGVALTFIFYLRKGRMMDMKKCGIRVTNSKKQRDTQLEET
T2 sequence (Q9NZQ7 19-238 limits assumed): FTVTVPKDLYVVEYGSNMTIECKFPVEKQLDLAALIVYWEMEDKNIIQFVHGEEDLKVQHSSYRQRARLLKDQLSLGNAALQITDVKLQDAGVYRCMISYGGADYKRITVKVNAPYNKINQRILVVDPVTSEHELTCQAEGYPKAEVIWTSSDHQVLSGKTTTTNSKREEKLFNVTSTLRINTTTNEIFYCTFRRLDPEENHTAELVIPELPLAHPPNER
cynomolgus monkey PD-L1, sequence (G7PSE7 entry or part of it limits assumed): as the sequence (Q9NZQ7 19-238 limits assumed) above, with A33T, A34S, S62N, R68Q, Q82R, F173L, T185A, T192I, H215L counted along it

B1: Variant 1-G09 (Fc effector null) (antibody, human IgG1, kappa, L234A L235A)
heavy: EVQLVESGGGLVQPGRSLRLSCAASGFTFDDYAMHWVRQTPGKGLEWVSGISWKSNIIGYADSVKGRFTISRDNAKNSLYLQMNSLRAEDTALYYCARDITGSGSYGWFDPWGQGTLVTVSSASTKGPSVFPLAPSSKSTSGGTAALGCLVKDYFPEPVTVSWNSGALTSGVHTFPAVLQSSGLYSLSSVVTVPSSSLGTQTYICNVNHKPSNTKVDKRVEPKSCDKTHTCPPCPAPEAAGGPSVFLFPPKPKDTLMISRTPEVTCVVVDVSHEDPEVKFNWYVDGVEVHNAKTKPREEQYNSTYRVVSVLTVLHQDWLNGKEYKCAVSNKALPAPIEKTISKAKGQPREPQVYTLPPSREEMTKNQVSLTCLVKGFYPSDIAVEWESNGQPENNYKTTPPVLDSDGSFFLYSKLTVDKSRWQQGNVFSCSVMHEALHNHYTQKSLSLSPG
light: DIQMTQSPSSLSASVGDRVTITCRASQSISSYLNWYQQKPGKAPKPLIYVASSLQSGVPSSFSGSGSGTDFTLTISSLQPEDFATYYCQQSYSNPITFGQGTRLEIKRTVAAPSVFIFPPSDEQLKSGTASVVCLLNNFYPREAKVQWKVDNALQSGNSQESVTEQDSKDSTYSLSSTLTLSKADYEKHKVYACEVTHQGLSSPVTKSFNRGEC
notes: Human IgG1 with L239A, L240A, K327A; kappa light chain; also called null mutant
B1: the receptor occupancy in assay [1] is greater than 80%.

B2: Variant 3-G09 (Fc effector null-H440Q) (antibody, human IgG1, kappa, L234A L235A)
heavy: B1 heavy with H440Q
light: B1 light
notes: Human IgG1 with L239A, L240A, K327A and H440Q; kappa light chain
Regarding B2, the values for the receptor occupancy in assay [1] and in assay [2] were greater than 80% and less than 20%, respectively.

B3: Variant 4-G09 (Fc effector null-H315A + H440Q) (antibody, human IgG1, kappa, L234A L235A)
heavy: B1 heavy with H315A, H440Q
light: B1 light
notes: Human IgG1 with L239A, L240A, K327A, H315A and H440Q; kappa light chain; also called double mutant
In assay [2], B3 yielded a receptor occupancy of less than 20%.

B4: Variant 2-G09 (Fc effector null-H315A) (antibody, human IgG1, kappa, L234A L235A)
heavy: B1 heavy with H315A
light: B1 light
notes: Human IgG1 with L239A, L240A, K327A and H315A; kappa light chain
With B4, the receptor occupancy in assay [1] is greater than 80%; in assay [2], less than 20%.

B5: human anti-PD-L1 monoclonal antibody 84G09 (antibody, V domains shown)
VH: EVQLVESGGGLVQPGRSLRLSCAASGFTFDDYAMHWVRQTPGKGLEWVSGISWKSNIIGYADSVKGRFTISRDNAKNSLYLQMNSLRAEDTALYYCARDITGSGSYGWFDPWGQGTLVTVSS
VL: DIQMTQSPSSLSASVGDRVTITCRASQSISSYLNWYQQKPGKAPKPLIYVASSLQSGVPSSFSGSGSGTDFTLTISSLQPEDFATYYCQQSYSNPITFGQGTRLEIK
notes: also called anti-human PD-L1 antibody (clone 84G09)
Turning to B5, the values for the equilibrium dissociation constant (Kd) with human PD-L1 [3], with human PD-L1 [4] and with cynomolgus monkey PD-L1 were 0.4 nM, 0.43 nM and 0.52 nM, respectively.
